The supplement of paper PMC9112550, “Optimization of the antimicrobial peptide Bac7 by deep mutational scanning” (BMC Biology, 2022)

system: Escherichia coli TOP10; assay: shrunken log2 fold change of peptide-encoding DNA abundance (4.5 h post-induction vs induction); higher = less antimicrobial activity (less host growth inhibition); settings: time post-induction: 4.5 h; library: site-saturation at positions 5, 18, 19, 20
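Also: peptides expressed intracellularly from a pBAD plasmid library in pooled LB shake-flask culture, induced with 0.3% L-arabinose, DNA abundance read by NGS, three biological replicates, DESeq2 with apeglm shrinkage.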

Sequence | shrunken log2 fold change
RRIRCRPPRLPRPRPRPGVKPRP | -0.0157
RRIRQRPPRLPRPRPRPHIGPRP | -0.0345
RRIRCRPPRLPRPRPRPCMPPRP | -0.66
RRIRPRPPRLPRPRPRPIALPRP | -0.0697
RRIRWRPPRLPRPRPRPNNCPRP | 0.00476
RRIRERPPRLPRPRPRPQFLPRP | -0.571
RRIRIRPPRLPRPRPRPPDFPRP | 0.189
RRIRLRPPRLPRPRPRPPEKPRP | 0.0964
RRIRNRPPRLPRPRPRPMVLPRP | 0.0232
RRIRPRPPRLPRPRPRPWEYPRP | -0.05
RRIRHRPPRLPRPRPRPLWLPRP | 0.0573
RRIRERPPRLPRPRPRPPQTPRP | 0.223
RRIRPRPPRLPRPRPRPFKPPRP | -0.387
RRIRWRPPRLPRPRPRPSECPRP | 0.0183
RRIRGRPPRLPRPRPRPDHNPRP | 0.0326
RRIRTRPPRLPRPRPRPYRDPRP | -0.383
RRIRIRPPRLPRPRPRPEFCPRP | -0.0252
RRIRNRPPRLPRPRPRPRQDPRP | 0.0815
RRIRDRPPRLPRPRPRPNIPPRP | -0.623
RRIRVRPPRLPRPRPRPGMFPRP | -0.132
RRIRNRPPRLPRPRPRPDGAPRP | 0.0931
RRIRMRPPRLPRPRPRPRMNPRP | -0.138
RRIRMRPPRLPRPRPRPLKKPRP | 0.349
RRIRRRPPRLPRPRPRPQMWPRP | -0.00576
RRIRIRPPRLPRPRPRPVTPPRP | -0.0315

Sequence | shrunken log2 fold change
RRIRGRPPRLPRPRPRPMRRPRP | 1.25
RRIRMRPPRLPRPRPRPRYSPRP | -0.342
RRIRSRPPRLPRPRPRPQYIPRP | -0.206
RRIRVRPPRLPRPRPRPAFYPRP | -0.135
RRIRFRPPRLPRPRPRPGAMPRP | 0.0505
RRIRYRPPRLPRPRPRPVKMPRP | -0.392
RRIRIRPPRLPRPRPRPLKAPRP | -0.02
RRIRCRPPRLPRPRPRPCHKPRP | -0.0857
RRIRSRPPRLPRPRPRPRTNPRP | 0.057
RRIRYRPPRLPRPRPRPDRIPRP | -0.00973
RRIRSRPPRLPRPRPRPTNLPRP | -0.215
RRIRGRPPRLPRPRPRPALIPRP | 0.737
RRIRDRPPRLPRPRPRPMIQPRP | -0.103
RRIRMRPPRLPRPRPRPTMKPRP | 0.482
RRIRRRPPRLPRPRPRPNLFPRP | 0.177
RRIRVRPPRLPRPRPRPLEPPRP | 0.236
RRIRIRPPRLPRPRPRPMGQPRP | -0.077
RRIRGRPPRLPRPRPRPSPNPRP | 0.244
RRIRYRPPRLPRPRPRPPMGPRP | -0.239
RRIRCRPPRLPRPRPRPHMRPRP | 0.0898
RRIRMRPPRLPRPRPRPITRPRP | 0.248
RRIRHRPPRLPRPRPRPWTEPRP | 0.0218
RRIRSRPPRLPRPRPRPGGTPRP | 0.247
RRIRLRPPRLPRPRPRPCVGPRP | -0.0253
RRIRMRPPRLPRPRPRPNNRPRP | -0.0376

Sequence | shrunken log2 fold change
RRIRDRPPRLPRPRPRPYNSPRP | -0.237
RRIRPRPPRLPRPRPRPRFKPRP | 0.166
RRIRGRPPRLPRPRPRPFTNPRP | 0.0545
RRIRIRPPRLPRPRPRPQCGPRP | 0.0719
RRIRMRPPRLPRPRPRPETHPRP | 2.51
RRIRYRPPRLPRPRPRPTLEPRP | -0.136
RRIRARPPRLPRPRPRPNDAPRP | -0.0891
RRIRARPPRLPRPRPRPMHYPRP | -0.0399
RRIRIRPPRLPRPRPRPLCFPRP | -0.485
RRIRTRPPRLPRPRPRPVSFPRP | -0.114
RRIRDRPPRLPRPRPRPAFNPRP | -0.223
RRIRRRPPRLPRPRPRPNYQPRP | -0.263
RRIRFRPPRLPRPRPRPNYLPRP | -0.381
RRIRIRPPRLPRPRPRPPQNPRP | -0.33
RRIRARPPRLPRPRPRPTLPPRP | 0.263
RRIRPRPPRLPRPRPRPKHVPRP | -0.137
RRIRSRPPRLPRPRPRPPEMPRP | 0.265
RRIRKRPPRLPRPRPRPDSFPRP | -0.115
RRIRRRPPRLPRPRPRPDVNPRP | 0.0369
RRIRHRPPRLPRPRPRPFFDPRP | -0.642
RRIRKRPPRLPRPRPRPFWCPRP | -0.0466
RRIRDRPPRLPRPRPRPFCIPRP | -0.0778
RRIRIRPPRLPRPRPRPDLNPRP | -0.211
RRIRFRPPRLPRPRPRPCQTPRP | -0.414
RRIRWRPPRLPRPRPRPRVYPRP | -0.401

Sequence | shrunken log2 fold change
RRIRNRPPRLPRPRPRPGERPRP | -0.0647
RRIRVRPPRLPRPRPRPLFIPRP | 0.101
RRIRCRPPRLPRPRPRPDYPPRP | -0.221
RRIRIRPPRLPRPRPRPDSSPRP | -0.318
RRIRSRPPRLPRPRPRPTHWPRP | 0.451
RRIRTRPPRLPRPRPRPWLVPRP | -0.0639
RRIRWRPPRLPRPRPRPNHKPRP | -0.37
RRIRARPPRLPRPRPRPAWGPRP | 0.616
RRIRPRPPRLPRPRPRPWSCPRP | -0.165
RRIRWRPPRLPRPRPRPTEDPRP | 0.0661
RRIRMRPPRLPRPRPRPFIDPRP | -0.438
RRIRMRPPRLPRPRPRPKQQPRP | 0.48
RRIRFRPPRLPRPRPRPNPLPRP | 0.0861
RRIRNRPPRLPRPRPRPNRPPRP | -0.0547
RRIRFRPPRLPRPRPRPATSPRP | 0.0918
RRIRKRPPRLPRPRPRPCWKPRP | 0.0714
RRIRCRPPRLPRPRPRPQFKPRP | -0.562
RRIRSRPPRLPRPRPRPQEVPRP | -0.0423
RRIRMRPPRLPRPRPRPENRPRP | 0.247
RRIRGRPPRLPRPRPRPVNHPRP | 0.301
RRIRCRPPRLPRPRPRPMNNPRP | -0.537
RRIRRRPPRLPRPRPRPCGQPRP | 0.205
RRIRKRPPRLPRPRPRPCNTPRP | -0.113
RRIRIRPPRLPRPRPRPTKHPRP | -0.528
RRIRARPPRLPRPRPRPAYHPRP | -0.0226

Sequence | shrunken log2 fold change
RRIRTRPPRLPRPRPRPMMPPRP | -0.0027
RRIRFRPPRLPRPRPRPLFVPRP | -0.424
RRIRCRPPRLPRPRPRPCMTPRP | -0.114
RRIRGRPPRLPRPRPRPWGYPRP | 0.094
RRIRGRPPRLPRPRPRPCNKPRP | -0.442
RRIRVRPPRLPRPRPRPDRVPRP | -0.285
RRIRNRPPRLPRPRPRPLGNPRP | -0.248
RRIRTRPPRLPRPRPRPYACPRP | -0.216
RRIRHRPPRLPRPRPRPTYFPRP | -0.309
RRIRLRPPRLPRPRPRPGSYPRP | 0.186
RRIRHRPPRLPRPRPRPHKQPRP | -0.225
RRIRIRPPRLPRPRPRPIKRPRP | -0.0331
RRIRCRPPRLPRPRPRPQDPPRP | -0.0952
RRIRHRPPRLPRPRPRPAICPRP | -0.218
RRIRFRPPRLPRPRPRPYQVPRP | -0.153
RRIRLRPPRLPRPRPRPAFSPRP | 0.106
RRIRSRPPRLPRPRPRPYQDPRP | 0.0107
RRIRIRPPRLPRPRPRPDCWPRP | 0.103
RRIRQRPPRLPRPRPRPASTPRP | -0.0855
RRIRLRPPRLPRPRPRPGCWPRP | 0.482
RRIRSRPPRLPRPRPRPSFRPRP | -0.357
RRIRPRPPRLPRPRPRPQMPPRP | -0.451
RRIRKRPPRLPRPRPRPITQPRP | -0.00651
RRIRTRPPRLPRPRPRPEHFPRP | -0.115
RRIRQRPPRLPRPRPRPACNPRP | 0.0438

Sequence | shrunken log2 fold change
RRIRRRPPRLPRPRPRPSHIPRP | -0.0708
RRIRNRPPRLPRPRPRPIDKPRP | -0.0756
RRIRQRPPRLPRPRPRPKRMPRP | -0.0373
RRIRKRPPRLPRPRPRPLLGPRP | 0.628
RRIRHRPPRLPRPRPRPPTIPRP | 0.215
RRIRRRPPRLPRPRPRPGHMPRP | 0.101
RRIRMRPPRLPRPRPRPIQVPRP | -0.00663
RRIRNRPPRLPRPRPRPQVRPRP | 0.05
RRIRMRPPRLPRPRPRPVNCPRP | 0.181
RRIRFRPPRLPRPRPRPAQAPRP | 0.29
RRIRERPPRLPRPRPRPRIHPRP | -0.737
RRIRARPPRLPRPRPRPCHHPRP | -0.0114
RRIRLRPPRLPRPRPRPRQMPRP | 0.208
RRIRVRPPRLPRPRPRPLQDPRP | -0.104
RRIRSRPPRLPRPRPRPTETPRP | 0.0721
RRIRWRPPRLPRPRPRPIVNPRP | -0.0307
RRIRGRPPRLPRPRPRPGTWPRP | 0.255
RRIRNRPPRLPRPRPRPEHPPRP | 0.115
RRIRNRPPRLPRPRPRPKHLPRP | -0.403
RRIRPRPPRLPRPRPRPEQFPRP | -0.0226
RRIRSRPPRLPRPRPRPSMAPRP | 0.223
RRIRGRPPRLPRPRPRPTGGPRP | 0.887
RRIRLRPPRLPRPRPRPSEYPRP | -0.675
RRIRWRPPRLPRPRPRPQSKPRP | -0.0549
RRIRQRPPRLPRPRPRPVDPPRP | -0.0233
